Laboratory results published in patent publication US20230192819A1 (TWIST BIOSCIENCE, published 2023).
Changes are numbered by the printed parent chain. “And” between values parts separate entries of the source, which are not always exact repeats. Equal entries are not always repeated.

B1: Antibody 1-1 (Fc fusion)
chain: EVQLVESGGGLVQPGGSLRLSCAASGSIGSINAMGWFRQAPGKEREWVAGISNGGTTNYADSVKGRFTISADNSKNTAYLQMNSLKPEDTAVYYCAADGVPEYSDYASGPVWGQGTLVTVSS
B2: Antibody 1-15 (Fc fusion)
chain: EVQLVESGGGLVQPGGSLRLSCAASGGIFSDMFMGWFRQAPGKEREFVATIDWSGDTAFYADSVKGRFTISADNSKNTAYLQMNSLKPEDTAVYYCAVDLSGDAVYDWGQGTLVTVSS
B3: Antibody 1-8 (Fc fusion)
chain: EVQLVESGGGLVQPGGSLRLSCAASGRTLSRYTMGWFRQAPGKEREFVASITSGGTTNYADSVKGRFTISADNSKNTAYLQMNSLKPEDTAVYYCAKEDVGKPFDWGQGTLVTVSS
B4: Antibody 1-7 (Fc fusion)
chain: EVQLVESGGGLVQPGGSLRLSCAASGGTFSSIGMGWFRQAPGKEREFVAAISWDGGATAYADSVKGRFTISADNSKNTVYLQMNSLKPEDTAVYYCAKEDVGKPFDWGQGTLVTVSS
B5: Antibody 1-10 (Fc fusion)
chain: B4 chain with G16S, V79A
B6: Antibody 1-19 (Fc fusion)
chain: EVQLVESGGGLVQPGGSLRLSCAASGFTFSDYAMGWFRQAPGKEREVVARIYWSSANTYYADSVKGRFTISADNSKNTAYLQMNSLKPEDTAVYYCATYGYDSGRYYSWGQGTLVTVSS

What follows are binders tested against California Variant W152C_L452R_D614G (assay: not given).

| Binder | IC50 |
| --- | --- |
| B1 | 4.4 nM |
| B2 | 66.7 nM |
| B3 | 2.72 nM |
| B4 | 0.111 nM |
| B5 | 0.13 nM |

The binders below were run against T1, Acro S1 spike protein (SARS-CoV-2) (SARS-CoV-2, UniProt P0DTC2 16-685) (assay: not given).

| Binder | Kd | koff | kon |
| --- | --- | --- | --- |
| B1 | 2.8 nM and 4 nM | 0.000378 s⁻¹ and 0.000446 s⁻¹ | 135000 M⁻¹ s⁻¹ and 112000 M⁻¹ s⁻¹ |
| B2 | 5.43 nM and 10.9 nM | 0.000339 s⁻¹ and 0.000547 s⁻¹ | 62400 M⁻¹ s⁻¹ and 50200 M⁻¹ s⁻¹ |
| B3 | 2.22 nM and 4.13 nM | 0.000412 s⁻¹ and 0.000662 s⁻¹ | 186000 M⁻¹ s⁻¹ and 160000 M⁻¹ s⁻¹ |
| B4 | – | – | 130000 M⁻¹ s⁻¹ and 161000 M⁻¹ s⁻¹ |
| B5 | 2.6 nM | 0.00053 s⁻¹ and 0.000728 s⁻¹ | 280000 M⁻¹ s⁻¹ |

Each binder was assayed against T2, S1 variant B.1.1.7: UK (Acro) spike protein (SARS-CoV-2, UniProt P0DTC2 16-1213) (assay: not given).

| Binder | Kd | koff | kon |
| --- | --- | --- | --- |
| B1 | 0.82 nM and 2.06 nM | 0.00024 s⁻¹ and 0.000189 s⁻¹ | – |
| B2 | 0.708 nM and 0.82 nM | 5.5e-05 s⁻¹ | 77700 M⁻¹ s⁻¹ |
| B3 | 3.2 nM | 0.000572 s⁻¹ | 179000 M⁻¹ s⁻¹ |
| B4 | – | – | 144000 M⁻¹ s⁻¹ and 188000 M⁻¹ s⁻¹ |
| B5 | 0.33 nM and 0.27 nM | 2.54e-05 s⁻¹ and 2.32e-05 s⁻¹ | 77000 M⁻¹ s⁻¹ and 86000 M⁻¹ s⁻¹ |

The binders below were run against T3, C52Hg Brazilian variant (Acro) spike protein (SARS-CoV-2, UniProt P0DTC2 16-1213) (assay: not given).

| Binder | Kd | koff | kon |
| --- | --- | --- | --- |
| B1 | 5.57 nM and 9.51 nM | 0.000724 s⁻¹ and 0.000956 s⁻¹ | 130000 M⁻¹ s⁻¹ and 100000 M⁻¹ s⁻¹ |
| B2 | – | 1e-05 s⁻¹ | – |
| B3 | 2.53 nM and 1.9 nM | 0.000158 s⁻¹ and 0.00011 s⁻¹ | 62400 M⁻¹ s⁻¹ and 58000 M⁻¹ s⁻¹ |
| B4 | 8.53 nM and 12.5 nM | 0.00081 s⁻¹ and 0.00121 s⁻¹ | 95000 M⁻¹ s⁻¹ and 96200 M⁻¹ s⁻¹ |

These binders were tested against Delta variant (Acro) spike protein (SARS-CoV-2, UniProt P0DTC2 16-1213) (assay: not given).

| Binder | Kd | koff | kon |
| --- | --- | --- | --- |
| B1 | 2.31 nM and 2.22 nM | 0.000433 s⁻¹ and 0.000358 s⁻¹ | 188000 M⁻¹ s⁻¹ and 161000 M⁻¹ s⁻¹ |
| B3 | 2.39 nM and 3.18 nM | 0.000409 s⁻¹ and 0.000318 s⁻¹ | 171000 M⁻¹ s⁻¹ and 100000 M⁻¹ s⁻¹ |
| B4 | 0.114 nM and 0.0579 nM | 1.87e-05 s⁻¹ and 1e-05 s⁻¹ | 164000 M⁻¹ s⁻¹ and 173000 M⁻¹ s⁻¹ |
| B5 | 7.43 nM and 5.43 nM | 0.000706 s⁻¹ and 0.000516 s⁻¹ | 95000 M⁻¹ s⁻¹ |

What follows are binders tested against T4, C52Hk S. African variant (Acro) spike protein (SARS-CoV-2, UniProt P0DTC2 16-1213) (assay: not given).

| Binder | Kd | koff | kon |
| --- | --- | --- | --- |
| B1 | 6.2 nM | 0.000806 s⁻¹ | 130000 M⁻¹ s⁻¹ |
| B4 | 8.2 nM and 7.9 nM | 0.000459 s⁻¹ and 0.000521 s⁻¹ | 56000 M⁻¹ s⁻¹ and 66000 M⁻¹ s⁻¹ |

Each binder was assayed against T1, Acro S1 spike protein (SARS-CoV-2) (assay: SPR (Carterra LSA)).

| Binder | binding result |
| --- | --- |
| B6 | no binding |

The binders below were run against T2, S1 variant B.1.1.7: UK (Acro) spike … (assay: SPR (Carterra LSA)).

| Binder | binding result |
| --- | --- |
| B6 | no binding |

These binders were tested against T4, C52Hk S. African variant (Acro) spike … (assay: SPR (Carterra LSA)).

| Binder | binding result |
| --- | --- |
| B6 | no binding |

What follows are binders tested against T3, C52Hg Brazilian variant (Acro) spike … (assay: SPR (Carterra LSA)).

| Binder | binding result |
| --- | --- |
| B6 | no binding |

These binders were tested against T1, Acro S1 spike protein (SARS-CoV-2) (assay: SPR (Carterra LSA); […]; 1:1 model; […]).

| Binder | Kd | koff | kon |
| --- | --- | --- | --- |
| B1 | 0.677 nM | 0.00042 s⁻¹ | 620000 M⁻¹ s⁻¹ |
| B2 | 10.4 nM | 0.00094 s⁻¹ | 90000 M⁻¹ s⁻¹ |
| B4 | 1.31 nM | 0.00047 s⁻¹ | 360000 M⁻¹ s⁻¹ |
| B5 | 1.96 nM | 0.00053 s⁻¹ | 270000 M⁻¹ s⁻¹ |

What follows are binders tested against T2, S1 variant B.1.1.7: UK (Acro) spike … (assay: SPR (Carterra LSA); […]; 1:1 model; […]).

| Binder | Kd | koff | kon |
| --- | --- | --- | --- |
| B1 | 0.867 nM | 0.00052 s⁻¹ | 600000 M⁻¹ s⁻¹ |
| B2 | 0.828 nM | 0.00024 s⁻¹ | 290000 M⁻¹ s⁻¹ |
| B3 | 2.26 nM | 0.0007 s⁻¹ | 310000 M⁻¹ s⁻¹ |
| B4 | 1.11 nM | 0.0004 s⁻¹ | 360000 M⁻¹ s⁻¹ |
| B5 | 0.481 nM | 0.00013 s⁻¹ | 270000 M⁻¹ s⁻¹ |

The binders below were run against T4, C52Hk S. African variant (Acro) spike … (assay: SPR (Carterra LSA); […]; 1:1 model; […]).

| Binder | Kd | koff | kon |
| --- | --- | --- | --- |
| B1 | 1.07 nM | 0.00058 s⁻¹ | 540000 M⁻¹ s⁻¹ |
| B2 | 1.04 nM | 0.00028 s⁻¹ | 270000 M⁻¹ s⁻¹ |
| B3 | 1 nM | 0.00057 s⁻¹ | 570000 M⁻¹ s⁻¹ |
| B4 | 1.36 nM | 0.00049 s⁻¹ | 360000 M⁻¹ s⁻¹ |
| B5 | 13.9 nM | 0.00089 s⁻¹ | 64000 M⁻¹ s⁻¹ |

Each binder was assayed against T3, C52Hg Brazilian variant (Acro) spike … (assay: SPR (Carterra LSA); […]; 1:1 model; […]).

| Binder | Kd | koff | kon |
| --- | --- | --- | --- |
| B1 | 0.691 nM | 0.00038 s⁻¹ | 550000 M⁻¹ s⁻¹ |
| B2 | 1.04 nM | 0.00028 s⁻¹ | 270000 M⁻¹ s⁻¹ |
| B3 | 0.321 nM | 0.00017 s⁻¹ | 530000 M⁻¹ s⁻¹ |
| B4 | 0.962 nM | 0.00025 s⁻¹ | 260000 M⁻¹ s⁻¹ |
| B5 | 127 nM | 0.00081 s⁻¹ | 6400 M⁻¹ s⁻¹ |

Each binder was assayed against T1, Acro S1 spike protein (SARS-CoV-2) (assay: SPR (Carterra LSA); antibody on chip, spike protein as analyte; summary table).

| Binder | Kd |
| --- | --- |
| B1 | 0.677 nM |
| B2 | 10.4 nM |
| B4 | 1.31 nM |
| B5 | 1.95 nM |

The binders below were run against T2, S1 variant B.1.1.7: UK (Acro) spike … in the same assay as above.

| Binder | Kd |
| --- | --- |
| B1 | 0.867 nM |
| B2 | 0.828 nM |
| B3 | 2.26 nM |
| B4 | 1.11 nM |
| B5 | 0.481 nM |

These binders were tested against T4, C52Hk S. African variant (Acro) spike … in the same assay as above.

| Binder | Kd |
| --- | --- |
| B1 | 1.07 nM |
| B2 | 1.4 nM |
| B3 | 1 nM |
| B4 | 1.36 nM |
| B5 | 13.9 nM |

Each binder was assayed against T3, C52Hg Brazilian variant (Acro) spike … in the same assay as above.

| Binder | Kd |
| --- | --- |
| B1 | 0.691 nM |
| B2 | 1.04 nM |
| B3 | 0.321 nM |
| B4 | 0.962 nM |
| B5 | 127 nM |
